Experimental data: paper PMC2873897 (Nature structural & molecular biology, 2010)
Blank lines part the entries; values can stand above or below the molecule they belong to.

Legend:
[1] = target: T-cadherin EC1-2 wild-type (mouse) (UniProt Q9WTR5); experiment: SPR
[2] = target: C-cadherin ectodomain (Xenopus laevis) (UniProt P33148); experiment: AUC; settings: cited from earlier work
[3] = target: E cadherin EC1-2 wild-type (WT) (mouse); experiment: AUC
[4] = target: E-cadherin ectodomain (Mus musculus) (UniProt P09803); experiment: AUC; settings: cited from earlier work
[5] = target: T cadherin EC1-2 G extension (mouse) (UniProt Q9WTR5); experiment: AUC
[6] = target: T cadherin EC1-2 I2A (mouse); experiment: AUC
[7] = target: E cadherin EC1-2 MR extension (mouse); experiment: AUC
[8] = target: E cadherin EC1-2 W2A (mouse); experiment: AUC
[9] = target: T cadherin EC1-2 R14E/D140K (charge reversal rescue mutant) (mouse); experiment: AUC
AUC [10] = target: the molecule itself; experiment: AUC
AUC [11] = target: the molecule itself; experiment: AUC; remark: listed apart in the source

Molecule: T-cadherin EC1-2 R14S D140S (domain or fragment)
fold reduction of the binding level against wild type [1]: > 5 fold

Molecule: C-cadherin ectodomain (from UniProt P33148)
Kd [2]: 64 µM

Molecule: E-cadherin ectodomain (from UniProt P09803)
Kd [4]: 80 µM

Molecule: E cadherin EC1-2 MR extension (domain or fragment)
Kd [7]: 258 µM

Molecule: E cadherin EC1-2 W2A (domain or fragment)
Kd [8]: 916 µM

Molecule: T cadherin EC1-2 R14E/D140K (charge reversal rescue mutant) (domain or fragment)
Kd [9]: 149 µM

Molecule: T-cadherin EC1-2 R14S (domain or fragment)
fold reduction of the binding level against wild type [1]: 5 fold

B1: T-cadherin EC1-2 wild-type (domain or fragment, mouse)
chain: IVVSPILIPENQRQPFPRDVGKVVDSDRPEGSKFRLTGKGVDQDPKGTFRINENTGSVSVTRTLDRETIATYQLYVETTDASGKTLEGPVPLEVIVIDQNDNRPIFREGPYIGHVMEGSPTGTTVMRMTAFDADDPATDNALLRYNIRQQTPDKPSPNMFYIDPEKGDIVTVVSPALLDRETLENPKYELIIEAQDMAGLDVGLTGTATATIVIDD
Kd (AUC [10]): 41.4 ± 1.7 µM | stoichiometry N (AUC [11]): 2

The remaining lines, values ahead:

Kd [3]: 98.6 µM
Molecule: E cadherin EC1-2 wild-type (WT) (domain or fragment)

Kd [5]: 16.5 µM
Molecule: T cadherin EC1-2 G extension (from UniProt Q9WTR5 140-355) (domain or fragment)

Kd [6]: 37.1 µM
Molecule: T cadherin EC1-2 I2A (domain or fragment)
